Assay results: the RNAGym collection of RNA variant scans (doi:10.7554/elife.80360)

B1: HDV Ribozyme (parent)
chain: GGCCGGCAUGGUCCCAGCCUCCUCGCUGGCGCCGGCUGGGCAACAUUCCGAGGGGACCGUCCCCUCGGUAAUGGCGAAUGGGACCCA

Variants of: B1
Assay: self-cleavage, relative activity (ratio to wild type); higher = more cleavage; co-transcriptional

Variant	self-cleavage
GGCCGGCAUGGACCCAGCCUCCUCGCUGGCGCCGGCUGGGCAACAUUCCGAGGGGACCGUCCCCUCGGUAAUGGCGAAGGGGACCCA [U12A U79G]	0.302
GGCCGGCAUGGACCCAGCCUCCUCGCUGGCGCCGGCUGGGCAACAUUCCGAGGGGACCGUCCCCUCGGUAAUGGCGAACGGGACCCA [U12A U79C]	0.166
GGCCGGCAUGGACCCAGCCCCCUCGCUGGCGCCGGCUGGGCAACAUUCCGAGGGGACCGUCCCCUCGGUAAUGGCGAAUGGGACCCA [U12A U20C]	0
GGCCGGCAUGGACCCAGCCACCUCGCUGGCGCCGGCUGGGCAACAUUCCGAGGGGACCGUCCCCUCGGUAAUGGCGAAUGGGACCCA [U12A U20A]	0.101
GGCCGGCAUGGACCCAGCCGCCUCGCUGGCGCCGGCUGGGCAACAUUCCGAGGGGACCGUCCCCUCGGUAAUGGCGAAUGGGACCCA [U12A U20G]	0
GGCCGGCAUGGCCCUAGCCUCCUCGCUGGCGCCGGCUGGGCAACAUUCCGAGGGGACCGUCCCCUCGGUAAUGGCGAAUGGGACCCA [U12C C15U]	0.147
GGCCGGCAUGGCCCAAGCCUCCUCGCUGGCGCCGGCUGGGCAACAUUCCGAGGGGACCGUCCCCUCGGUAAUGGCGAAUGGGACCCA [U12C C15A]	0.482
GGCCGGCAUGGCCCGAGCCUCCUCGCUGGCGCCGGCUGGGCAACAUUCCGAGGGGACCGUCCCCUCGGUAAUGGCGAAUGGGACCCA [U12C C15G]	0.147
GGCCGGCAUGGCCCCAGCCUCCUCGCUGGCGCCGGCUGGGCAACAUUCCGAGGGGACCGUCCCCUCGGUAAUGGCGAUUGGGACCCA [U12C A78U]	0
GGCCGGCAUGGCCCCAGCCUCCUCGCUGGCGCCGGCUGGGCAACAUUCCGAGGGGACCGUCCCCUCGGUAAUGGCGACUGGGACCCA [U12C A78C]	0.162
GGCCGGCAUGGCCCCAGCCUGCUCGCUGGCGCCGGCUGGGCAACAUUCCGAGGGGACCGUCCCCUCGGUAAUGGCGAAUGGGACCCA [U12C C21G]	0.0791
GGCCGGCAUGGCCCCAGCCUUCUCGCUGGCGCCGGCUGGGCAACAUUCCGAGGGGACCGUCCCCUCGGUAAUGGCGAAUGGGACCCA [U12C C21U]	0
GGCCGGCAUGGCCCCAGCCUACUCGCUGGCGCCGGCUGGGCAACAUUCCGAGGGGACCGUCCCCUCGGUAAUGGCGAAUGGGACCCA [U12C C21A]	0.0573
GGCCGGCAUGGCCCCAGCCUCCUCGCUGGCGCCGGCUGGGCAAGAUUCCGAGGGGACCGUCCCCUCGGUAAUGGCGAAUGGGACCCA [U12C C44G]	0
GGCCGGCAUGGCCCCAGCCUCCUCGCUGGCGCCGGCUGGGCAAAAUUCCGAGGGGACCGUCCCCUCGGUAAUGGCGAAUGGGACCCA [U12C C44A]	0.252
GGCCGGCAUGGCCCCGGCCUCCUCGCUGGCGCCGGCUGGGCAACAUUCCGAGGGGACCGUCCCCUCGGUAAUGGCGAAUGGGACCCA [U12C A16G]	0
GGCCGGCAUGGCCCCAGCCUCAUCGCUGGCGCCGGCUGGGCAACAUUCCGAGGGGACCGUCCCCUCGGUAAUGGCGAAUGGGACCCA [U12C C22A]	0.115
GGCCGGCAUGGCCCCAGCCUCUUCGCUGGCGCCGGCUGGGCAACAUUCCGAGGGGACCGUCCCCUCGGUAAUGGCGAAUGGGACCCA [U12C C22U]	0.231
GGCCGGCAUGGACCCAGCCUCCUCGCUGGCGCCGGCAGGGCAACAUUCCGAGGGGACCGUCCCCUCGGUAAUGGCGAAUGGGACCCA [U12A U37A]	0
GGCCGGCAUGGCCCCAGCCUCCUCGCUGGCGCCGGCUGGGCAACAUUCCGAGGGGACCGUCCCCUCGGUCAUGGCGAAUGGGACCCA [U12C A70C]	0
GGCCGGCAUGGACCCAGCCUCCUCGCUGGCGCCGGCUGGGCAACAUUCCGAGGGGACCGUCCCCUCGGUAAUGGCGAAUGGUACCCA [U12A G82U]	0.161
GGCCGGCAUGGCCACAGCCUCCUCGCUGGCGCCGGCUGGGCAACAUUCCGAGGGGACCGUCCCCUCGGUAAUGGCGAAUGGGACCCA [U12C C14A]	0.18

Variant	self-cleavage
GGCCGGCAUGGCCGCAGCCUCCUCGCUGGCGCCGGCUGGGCAACAUUCCGAGGGGACCGUCCCCUCGGUAAUGGCGAAUGGGACCCA [U12C C14G]	0.229
GGCCGGCAUGGCCUCAGCCUCCUCGCUGGCGCCGGCUGGGCAACAUUCCGAGGGGACCGUCCCCUCGGUAAUGGCGAAUGGGACCCA [U12C C14U]	0.277
GGCCGGCAUGGCCCCAGCCUCCUCGCUGGCGCCGGCUGGGCAACAUUCCGAGGGGACCGUCCCAUCGGUAAUGGCGAAUGGGACCCA [U12C C64A]	0.344
GGCCGGCAUGGCCCCAGCCUCCUCGCUGGCGCCGGCUGGGCGACAUUCCGAGGGGACCGUCCCCUCGGUAAUGGCGAAUGGGACCCA [U12C A42G]	0.0831
GGCCGGCAUGGACCCAGCCUCCUCGCUGGCGCCGGCUGGGCAACAUUCCGAGGGGACCGUCCCCACGGUAAUGGCGAAUGGGACCCA [U12A U65A]	0.431
GGCCGGCAUGGCCCCAGCCUCCUCGCUGGCGCCGGCUGGGCAACAUUCCGAGGGGACCGUCCGCUCGGUAAUGGCGAAUGGGACCCA [U12C C63G]	0.123
GGCCGGCAUGGCCCCAGCCUCCUCGCUGGCGCCGGCUGGGCAACAUUCCGAGGGGACCGUCGCCUCGGUAAUGGCGAAUGGGACCCA [U12C C62G]	0.123
GGCCGGCAUGGCCCCAGCCUCCUUGCUGGCGCCGGCUGGGCAACAUUCCGAGGGGACCGUCCCCUCGGUAAUGGCGAAUGGGACCCA [U12C C24U]	0.0791
GGCCGGCAUGGCCCCAGCCUCCUAGCUGGCGCCGGCUGGGCAACAUUCCGAGGGGACCGUCCCCUCGGUAAUGGCGAAUGGGACCCA [U12C C24A]	0.232
GGCCGGCAUGGCCCCAGCCUCCUGGCUGGCGCCGGCUGGGCAACAUUCCGAGGGGACCGUCCCCUCGGUAAUGGCGAAUGGGACCCA [U12C C24G]	0.119
GGCCGGCAUGGCCCCAGCUUCCUCGCUGGCGCCGGCUGGGCAACAUUCCGAGGGGACCGUCCCCUCGGUAAUGGCGAAUGGGACCCA [U12C C19U]	0.0415
GGCCGGCAUGGCCCCAGCGUCCUCGCUGGCGCCGGCUGGGCAACAUUCCGAGGGGACCGUCCCCUCGGUAAUGGCGAAUGGGACCCA [U12C C19G]	0.0723
GGCCGGCAUGGCCCCAGCCUCCUCGCUGGCGCCGGCUGGGCAACAUUCCGAGGGGGCCGUCCCCUCGGUAAUGGCGAAUGGGACCCA [U12C A56G]	0.623
GGCCGGCAUGGCCCCAGCCUCCUCGCUGGCGCCGGCUGGGCAACAUUCCGAGGGGACUGUCCCCUCGGUAAUGGCGAAUGGGACCCA [U12C C58U]	0.222
GGCCGGCAUGGCCCCAGCCUCCUCGCUGGCGCCGGCUGGGCAACAUUCCGAGGGGACGGUCCCCUCGGUAAUGGCGAAUGGGACCCA [U12C C58G]	0.208
GGCCGGCAUGGACCCAGCCUCCUCGCUGGCGCCGGCUGGGCAACAUUCCGAGGGGACCGCCCCCUCGGUAAUGGCGAAUGGGACCCA [U12A U60C]	0.391
GGCCGGCAUGGACCCAGCCUCCUCGCUGGCGCCGGCUGGGCAACAUUCCGAGGGGACCGACCCCUCGGUAAUGGCGAAUGGGACCCA [U12A U60A]	0.453
GGCCGGCAUGGCCCCAGUCUCCUCGCUGGCGCCGGCUGGGCAACAUUCCGAGGGGACCGUCCCCUCGGUAAUGGCGAAUGGGACCCA [U12C C18U]	0.111
GGCCGGCAUGGCCCCAGGCUCCUCGCUGGCGCCGGCUGGGCAACAUUCCGAGGGGACCGUCCCCUCGGUAAUGGCGAAUGGGACCCA [U12C C18G]	0
GGCCGGCAUGGCCCCAGCCUCCUCGCUGGCGCCGGCUGGGCAACAUUCCGAGGGGAUCGUCCCCUCGGUAAUGGCGAAUGGGACCCA [U12C C57U]	0.293
GGCCGGCAUGGCCCCAGCCUCCUCGCUGGCGCCGGCUGGGCAACAUUCCGAGGGGACCGUCCCCUCGGUAAUGGCGAAUGGGACCCC [U12C A87C]	0.479
GGCCGGCAUGGCCCCAGCCUCCUCGCUGGCGCCGGCUGGGCAACAUUCCGAGGGGACCGUCCCCUCGGUAAUGGCGAAUGGGACCCG [U12C A87G]	0.369

Variant	self-cleavage
GGCCGGCAUGGCCCCAGCCUCCUCGCUGGCGCCGGCUGGGGAACAUUCCGAGGGGACCGUCCCCUCGGUAAUGGCGAAUGGGACCCA [U12C C41G]	0.289
GGCCGGCAUGGCCCCAGCCUCCUCGCUGGCGCCGGAUGGGCAACAUUCCGAGGGGACCGUCCCCUCGGUAAUGGCGAAUGGGACCCA [U12C C36A]	0.142
GGCCGGCAUGGCCCCAGCCUCCUCGCUGGCGCCGGCUGGGCAACAUUCCGAGGGGACCGUCCCCUCGGUAAUGGCGAAUGGGUCCCA [U12C A83U]	0.128
GGCCGGCAUGGACCCAGCCUCCUCGCGGGCGCCGGCUGGGCAACAUUCCGAGGGGACCGUCCCCUCGGUAAUGGCGAAUGGGACCCA [U12A U27G]	0.237
GGCCGGCAUGGACCCAGCCUCCUCGCCGGCGCCGGCUGGGCAACAUUCCGAGGGGACCGUCCCCUCGGUAAUGGCGAAUGGGACCCA [U12A U27C]	0.35
GGCCGGCAUGGACCCAGCCUCCUCGCUGGCGCCGGCUGGGCAACAUUCCGAGGGGACCGUCCCCUCGGAAAUGGCGAAUGGGACCCA [U12A U69A]	0.346
GGCCGGCAUGGCCCCAGCCUCCUCGCUGGCGCCGGCUGGGCAACAUUCCGAGGGGACCGUCCCCUCGGUAAUGGCGCAUGGGACCCA [U12C A77C]	0.237
GGCCGGCAUGGACCCAGCCUCCCCGCUGGCGCCGGCUGGGCAACAUUCCGAGGGGACCGUCCCCUCGGUAAUGGCGAAUGGGACCCA [U12A U23C]	0.237
GGCCGGCAUGGCCCCAGCCUCCUCGCUGGCGCCGGCUGGGCAACAUUCCGUGGGGACCGUCCCCUCGGUAAUGGCGAAUGGGACCCA [U12C A51U]	0.359
GGCCGGCAUGGCCCCAGCCUCCUCGCUGGCGCCGGCUGGGCAACUUUCCGAGGGGACCGUCCCCUCGGUAAUGGCGAAUGGGACCCA [U12C A45U]	0.196
GGCCGGCAUGGCCCCAGCCUCCUCGCUGGCGCCGGCUGGGCAACGUUCCGAGGGGACCGUCCCCUCGGUAAUGGCGAAUGGGACCCA [U12C A45G]	0.277
GGCCGGCAUGGCCCCAGCCUCCUCGCUGGCGCCGGCUGGGCAGCAUUCCGAGGGGACCGUCCCCUCGGUAAUGGCGAAUGGGACCCA [U12C A43G]	0.0437
GGCCGGCAUGGCCCCAGCCUCCUCGAUGGCGCCGGCUGGGCAACAUUCCGAGGGGACCGUCCCCUCGGUAAUGGCGAAUGGGACCCA [U12C C26A]	0.831
GGCCGGCAUGGCCCCAGCCUCCUCGUUGGCGCCGGCUGGGCAACAUUCCGAGGGGACCGUCCCCUCGGUAAUGGCGAAUGGGACCCA [U12C C26U]	0.776
GGCCGGCAUGGACCCAGCCUCCUCGCUGGCGCCGGCUGGGCAACAGUCCGAGGGGACCGUCCCCUCGGUAAUGGCGAAUGGGACCCA [U12A U46G]	0.104
GGCCGGCAUGGACCCAGCCUCCUCGCUGGCGCCGGCUGGGCAACAUGCCGAGGGGACCGUCCCCUCGGUAAUGGCGAAUGGGACCCA [U12A U47G]	0.262
GGCCGGCAUGGACCCAGCCUCCUCGCUGGCGCCGGCUGGGCAACAUCCCGAGGGGACCGUCCCCUCGGUAAUGGCGAAUGGGACCCA [U12A U47C]	0.332
GGCCGGCAUGGCCCCAGCCUCCUCGCUGGCGGCGGCUGGGCAACAUUCCGAGGGGACCGUCCCCUCGGUAAUGGCGAAUGGGACCCA [U12C C32G]	0
GGCCGGCAUGGCCCCAGCCUCCUCGCUGGCGUCGGCUGGGCAACAUUCCGAGGGGACCGUCCCCUCGGUAAUGGCGAAUGGGACCCA [U12C C32U]	0.135
GGCCGGCAUGGACCCAGCCUCCUCGCUGGCGCCGGCUGGGCAACAUUCCGAGGGGACCGUCCCCUCGGUAAGGGCGAAUGGGACCCA [U12A U72G]	0.185
